{"source": "the supplement of paper PMC10567573", "parents": {"B1": {"name": "PRPH (parent)", "chain": "RTFGPPPSLSPGAFSYSSSSRFSS"}}, "data": [{"variants_of": "B1", "test": "protein stability index of a GFP-peptide fusion (GPS, HEK-293T) (PSI 1-6); higher = more stable", "details": "c terminus: a fixed tail appended", "values": [{"variant": "RTFGPPPSLSPGAFHYSSSSRFSS", "note": "[S15H]", "protein stability index": 2.85}, {"variant": "RTFGPPPSLSPGAFIYSSSSRFSS", "note": "[S15I]", "protein stability index": 2.95}, {"variant": "RTFGPPPSLSPGAFKYSSSSRFSS", "note": "[S15K]", "protein stability index": 3.29}, {"variant": "RTFGPPPSLSPGAFLYSSSSRFSS", "note": "[S15L]", "protein stability index": 2.62}, {"variant": "RTFGPPPSLSPGAFMYSSSSRFSS", "note": "[S15M]", "protein stability index": 2.65}, {"variant": "RTFGPPPSLSPGAFNYSSSSRFSS", "note": "[S15N]", "protein stability index": 3.37}, {"variant": "RTFGPPPSLSPGAFPYSSSSRFSS", "note": "[S15P]", "protein stability index": 3.03}, {"variant": "RTFGPPPSLSPGAFQYSSSSRFSS", "note": "[S15Q]", "protein stability index": 3.18}, {"variant": "RTFGPPPSLSPGAFRYSSSSRFSS", "note": "[S15R]", "protein stability index": 2.33}, {"variant": "RTFGPPPSLSPGAFTYSSSSRFSS", "note": "[S15T]", "protein stability index": 3.48}, {"variant": "RTFGPPPSLSPGAFVYSSSSRFSS", "note": "[S15V]", "protein stability index": 2.74}, {"variant": "RTFGPPPSLSPGAFWYSSSSRFSS", "note": "[S15W]", "protein stability index": 2.31}, {"variant": "RTFGPPPSLSPGAFYYSSSSRFSS", "note": "[S15Y]", "protein stability index": 2.56}, {"variant": "RTFGPPPSLSPGAFSASSSSRFSS", "note": "[Y16A]", "protein stability index": 3.81}, {"variant": "RTFGPPPSLSPGAFSCSSSSRFSS", "note": "[Y16C]", "protein stability index": 3.18}, {"variant": "RTFGPPPSLSPGAFSDSSSSRFSS", "note": "[Y16D]", "protein stability index": 3.9}, {"variant": "RTFGPPPSLSPGAFSESSSSRFSS", "note": "[Y16E]", "protein stability index": 3.98}, {"variant": "RTFGPPPSLSPGAFSFSSSSRFSS", "note": "[Y16F]", "protein stability index": 2.99}, {"variant": "RTFGPPPSLSPGAFSGSSSSRFSS", "note": "[Y16G]", "protein stability index": 4.28}, {"variant": "RTFGPPPSLSPGAFSHSSSSRFSS", "note": "[Y16H]", "protein stability index": 4.04}, {"variant": "RTFGPPPSLSPGAFSISSSSRFSS", "note": "[Y16I]", "protein stability index": 3.31}, {"variant": "RTFGPPPSLSPGAFSKSSSSRFSS", "note": "[Y16K]", "protein stability index": 3.66}, {"variant": "RTFGPPPSLSPGAFSLSSSSRFSS", "note": "[Y16L]", "protein stability index": 3.95}, {"variant": "RTFGPPPSLSPGAFSPSSSSRFSS", "note": "[Y16P]", "protein stability index": 4.1}, {"variant": "RTFGPPPSLSPGAFSQSSSSRFSS", "note": "[Y16Q]", "protein stability index": 3.62}, {"variant": "RTFGPPPSLSPGAFSRSSSSRFSS", "note": "[Y16R]", "protein stability index": 3.92}, {"variant": "RTFGPPPSLSPGAFSSSSSSRFSS", "note": "[Y16S]", "protein stability index": 3.86}, {"variant": "RTFGPPPSLSPGAFSTSSSSRFSS", "note": "[Y16T]", "protein stability index": 3.64}, {"variant": "RTFGPPPSLSPGAFSVSSSSRFSS", "note": "[Y16V]", "protein stability index": 3.69}, {"variant": "RTFGPPPSLSPGAFSWSSSSRFSS", "note": "[Y16W]", "protein stability index": 3.36}, {"variant": "RTFGPPPSLSPGAFSYASSSRFSS", "note": "[S17A]", "protein stability index": 3.02}, {"variant": "RTFGPPPSLSPGAFSYCSSSRFSS", "note": "[S17C]", "protein stability index": 2.85}, {"variant": "RTFGPPPSLSPGAFSYDSSSRFSS", "note": "[S17D]", "protein stability index": 3.06}, {"variant": "RTFGPPPSLSPGAFSYESSSRFSS", "note": "[S17E]", "protein stability index": 3.59}, {"variant": "RTFGPPPSLSPGAFSYFSSSRFSS", "note": "[S17F]", "protein stability index": 2.37}, {"variant": "RTFGPPPSLSPGAFSYHSSSRFSS", "note": "[S17H]", "protein stability index": 2.54}, {"variant": "RTFGPPPSLSPGAFSYISSSRFSS", "note": "[S17I]", "protein stability index": 2.55}, {"variant": "RTFGPPPSLSPGAFSYKSSSRFSS", "note": "[S17K]", "protein stability index": 3.04}, {"variant": "RTFGPPPSLSPGAFSYLSSSRFSS", "note": "[S17L]", "protein stability index": 2.53}, {"variant": "RTFGPPPSLSPGAFSYNSSSRFSS", "note": "[S17N]", "protein stability index": 3.71}, {"variant": "RTFGPPPSLSPGAFSYPSSSRFSS", "note": "[S17P]", "protein stability index": 3.16}, {"variant": "RTFGPPPSLSPGAFSYQSSSRFSS", "note": "[S17Q]", "protein stability index": 3.1}, {"variant": "RTFGPPPSLSPGAFSYRSSSRFSS", "note": "[S17R]", "protein stability index": 2.99}, {"variant": "RTFGPPPSLSPGAFSYTSSSRFSS", "note": "[S17T]", "protein stability index": 3.19}, {"variant": "RTFGPPPSLSPGAFSYVSSSRFSS", "note": "[S17V]", "protein stability index": 2.75}, {"variant": "RTFGPPPSLSPGAFSYWSSSRFSS", "note": "[S17W]", "protein stability index": 2.27}, {"variant": "RTFGPPPSLSPGAFSYYSSSRFSS", "note": "[S17Y]", "protein stability index": 3.07}, {"variant": "RTFGPPPSLSPGAFSYSASSRFSS", "note": "[S18A]", "protein stability index": 2.76}, {"variant": "RTFGPPPSLSPGAFSYSCSSRFSS", "note": "[S18C]", "protein stability index": 3.5}, {"variant": "RTFGPPPSLSPGAFSYSDSSRFSS", "note": "[S18D]", "protein stability index": 2.94}, {"variant": "RTFGPPPSLSPGAFSYSESSRFSS", "note": "[S18E]", "protein stability index": 3.57}, {"variant": "RTFGPPPSLSPGAFSYSFSSRFSS", "note": "[S18F]", "protein stability index": 2.45}, {"variant": "RTFGPPPSLSPGAFSYSGSSRFSS", "note": "[S18G]", "protein stability index": 3.38}, {"variant": "RTFGPPPSLSPGAFSYSHSSRFSS", "note": "[S18H]", "protein stability index": 2.8}, {"variant": "RTFGPPPSLSPGAFSYSISSRFSS", "note": "[S18I]", "protein stability index": 2.66}, {"variant": "RTFGPPPSLSPGAFSYSKSSRFSS", "note": "[S18K]", "protein stability index": 3.9}, {"variant": "RTFGPPPSLSPGAFSYSLSSRFSS", "note": "[S18L]", "protein stability index": 2.59}, {"variant": "RTFGPPPSLSPGAFSYSMSSRFSS", "note": "[S18M]", "protein stability index": 2.75}, {"variant": "RTFGPPPSLSPGAFSYSNSSRFSS", "note": "[S18N]", "protein stability index": 3.22}, {"variant": "RTFGPPPSLSPGAFSYSPSSRFSS", "note": "[S18P]", "protein stability index": 2.93}, {"variant": "RTFGPPPSLSPGAFSYSQSSRFSS", "note": "[S18Q]", "protein stability index": 3.5}, {"variant": "RTFGPPPSLSPGAFSYSRSSRFSS", "note": "[S18R]", "protein stability index": 3.38}, {"variant": "RTFGPPPSLSPGAFSYSTSSRFSS", "note": "[S18T]", "protein stability index": 3.25}, {"variant": "RTFGPPPSLSPGAFSYSVSSRFSS", "note": "[S18V]", "protein stability index": 3.24}, {"variant": "RTFGPPPSLSPGAFSYSWSSRFSS", "note": "[S18W]", "protein stability index": 2.77}, {"variant": "RTFGPPPSLSPGAFSYSYSSRFSS", "note": "[S18Y]", "protein stability index": 2.98}, {"variant": "RTFGPPPSLSPGAFSYSSASRFSS", "note": "[S19A]", "protein stability index": 3.08}, {"variant": "RTFGPPPSLSPGAFSYSSCSRFSS", "note": "[S19C]", "protein stability index": 2.66}, {"variant": "RTFGPPPSLSPGAFSYSSESRFSS", "note": "[S19E]", "protein stability index": 3.55}, {"variant": "RTFGPPPSLSPGAFSYSSFSRFSS", "note": "[S19F]", "protein stability index": 2.38}, {"variant": "RTFGPPPSLSPGAFSYSSGSRFSS", "note": "[S19G]", "protein stability index": 3.46}, {"variant": "RTFGPPPSLSPGAFSYSSHSRFSS", "note": "[S19H]", "protein stability index": 2.81}, {"variant": "RTFGPPPSLSPGAFSYSSISRFSS", "note": "[S19I]", "protein stability index": 2.45}, {"variant": "RTFGPPPSLSPGAFSYSSKSRFSS", "note": "[S19K]", "protein stability index": 3.7}, {"variant": "RTFGPPPSLSPGAFSYSSLSRFSS", "note": "[S19L]", "protein stability index": 2.93}, {"variant": "RTFGPPPSLSPGAFSYSSMSRFSS", "note": "[S19M]", "protein stability index": 2.26}, {"variant": "RTFGPPPSLSPGAFSYSSNSRFSS", "note": "[S19N]", "protein stability index": 3.46}, {"variant": "RTFGPPPSLSPGAFSYSSPSRFSS", "note": "[S19P]", "protein stability index": 3.12}, {"variant": "RTFGPPPSLSPGAFSYSSQSRFSS", "note": "[S19Q]", "protein stability index": 2.66}, {"variant": "RTFGPPPSLSPGAFSYSSRSRFSS", "note": "[S19R]", "protein stability index": 3.5}, {"variant": "RTFGPPPSLSPGAFSYSSTSRFSS", "note": "[S19T]", "protein stability index": 3.23}, {"variant": "RTFGPPPSLSPGAFSYSSVSRFSS", "note": "[S19V]", "protein stability index": 3.63}, {"variant": "RTFGPPPSLSPGAFSYSSWSRFSS", "note": "[S19W]", "protein stability index": 2.19}, {"variant": "RTFGPPPSLSPGAFSYSSYSRFSS", "note": "[S19Y]", "protein stability index": 2.38}, {"variant": "RTFGPPPSLSPGAFSYSSSARFSS", "note": "[S20A]", "protein stability index": 3.71}, {"variant": "RTFGPPPSLSPGAFSYSSSCRFSS", "note": "[S20C]", "protein stability index": 2.33}, {"variant": "RTFGPPPSLSPGAFSYSSSDRFSS", "note": "[S20D]", "protein stability index": 3.23}, {"variant": "RTFGPPPSLSPGAFSYSSSERFSS", "note": "[S20E]", "protein stability index": 2.76}, {"variant": "RTFGPPPSLSPGAFSYSSSFRFSS", "note": "[S20F]", "protein stability index": 2.35}, {"variant": "RTFGPPPSLSPGAFSYSSSGRFSS", "note": "[S20G]", "protein stability index": 2.99}, {"variant": "RTFGPPPSLSPGAFSYSSSHRFSS", "note": "[S20H]", "protein stability index": 2.96}, {"variant": "RTFGPPPSLSPGAFSYSSSIRFSS", "note": "[S20I]", "protein stability index": 2.43}, {"variant": "RTFGPPPSLSPGAFSYSSSKRFSS", "note": "[S20K]", "protein stability index": 3.81}, {"variant": "RTFGPPPSLSPGAFSYSSSLRFSS", "note": "[S20L]", "protein stability index": 2.48}]}]}
